# B1: AiiO-AIO6 (Ochrobactrum sp. M231) (protein)
# chain: MKSHEIETSHGRIAIRESRGNGTPLLMIHGNSSAGAIFAPQLEGEIGRNWRVIAPDLPGHGQSGNALDPDRSYSMEGYADVMTEVLAKLGISDAVVFGWSLGGHIGIEMISRFPGMRGLMITGTPPVAREEVGQGFRSGPDMALAGQEAFSDRDVESYARSTCGEPFEEQLLEIVARTDGRARRIMFEKFAAGTGGNQRDIVAEARLPIAVVNGRDEPFVELDFVSKVRFGNLWEGRTHVIDGAGHAPFRETPAIFDDYLQRFMRDCTA
# notes: purified recombinant; expressed from pWB-AIO6BS in Bacillus subtilis 1A751 or protease-deletion derivatives (non-classical secretion, no signal peptide); His tag implied by anti-His Western blot; catalytic triad Ser100, Glu214, His246
# Substrate: CCCCCC(=O)CC(=O)N[C@H]1CCOC1=O
# Assay: purified protein
# Assay type: biochemical, Ochrobactrum sp. M231
# Details: PBS pH 7.0, 30 °C, 30 min, substrate range printed as 0.249 to 0.870 nM in methods, not consistent with Km in mmol/L, hydrolysis assay used 0.248 mM
protein,measurement,value
B1,Km,415.1 µM
same,kcat,9.34 S^-1
